Legend:
[1] = test system: RET/GFRα1-expressing MDCK cells; test: Boyden chamber cell migration and chemotaxis assay; format: cell-based, dog
Procedure: (§1) FIG. 3A: In Boyden chamber chemotaxis assays, mock-transfected, GFRα1-expressing and RET/GFRα1-expressing cells were exposed to GDNF, and wild-type MDCK to HGF. The number of cells was counted as described in Materials and Methods. +/+=GDNF at 100 ng/ml or HGF at 50 ng/ml was added to both chambers to assay chemokinesis. Each result represents the mean±SEM (n=3). For each case, p<0.001.
(§2) 5×10^4 MDCK cells (GFRα1-, RET/GFRα1-expressing and mock transfected) were suspended in 300 µl of MEM with 10% FCS and seeded into 24-well cell culture inserts with the filters (Boyden chambers), pore size 8 μm (Falcon). The assay was done as described (Tang et al., 1998). Briefly, GDNF or HGF was added to the upper, or both the upper and lower chambers at the marked concentrations. After 48 h incubation, non-migrated cells on the upper surface of the filters were scrapped. Membranes with the cells on the lower surface were washed with PBS, fixed by 3% glutaraldehyde in PBS, stained with May-Grünwald Giemsa (MGG) solution, dehydrated and mounted on the slides. Cells in eight fields of each membrane were counted under the light microscope (Magnification=100×). The average and standard error of the mean were calculated. Statistical significance of the differences was estimated by t-test.
(§3) Guided migration of cells towards a chemoattractant is referred to as chemotaxis, whereas enhanced cellular motility is called chemokinesis. Chemotaxis can be tested in the Boyden dual chamber assay by adding the test substance to the lower chamber only, and chemokinesis by adding test substance to both upper and lower chambers. […] Similarly, the chemotactic migration of RET/GFRα1co-expressing MDCK cells is stimulated by GDNF in the presence of soluble GFRα1 (Tang et al., 1998).

[2] = test system: GFRα1-expressing, RET-deficient MDCK cells; test: Boyden chamber cell migration and chemotaxis assay; format: cell-based, dog
Procedure: as §1, §2, §3

[3] = GDNF 100 ng/ml added to both chambers

B1: GDNF: recombinant glial cell line-derived neurotrophic factor from Cephalon Inc. (baculovirus-infected insect cells) or R&D Systems, Inc. (mouse myeloma NSO) (protein, UniProt P39905 78-211, looked up)
Glial cell line-derived …: SPDKQMAVLPRRERNRQAAAANPENSRGKGRRGQRGKNRGCVLTAIHLNVTDLGLGYETKEELIFRYCSGSCDAAETTYDKILKNLSRNRRLVSDKVGQACCRPIAFDDDLSFLDDNLVYHILRKHSAKRCGCI
chemotactic migration ([1]; Boyden chamber, 48 h): induced chemotactic migration
migration with ligand in both chambers compared to the maximal chemotactic response (chemokinesis) [1, 3]: reduced threefold
chemotactic response ([2]; Boyden chamber, 48 h): did not demonstrate a chemotactic response
migration with ligand in both chambers (chemokinesis) [2, 3]: only slightly reduced

Reference: US20080070264A1, “Intracellular Signaling-Induced Ret-Independent Gdnf Receptor-Effected Morphological Changes” (JPMORGAN CHASE BANK N.A., priority 2003, published 2008)
